Results published in PMC9270254.

Legend:
human IgG (human) = assay: SPR
human IgM (human) = assay: SPR

Kd1 (first phase, two-exponential fit) (human IgG (human)): 6.8 nM
kd1 (first phase, two-exponential fit) (human IgG (human)): 0.032 s⁻¹
kd2 (second phase, two-exponential fit) (human IgG (human)): 0.0021 s⁻¹
Kd1 (first phase, two-exponential fit) (human IgM (human)): 8.5 nM
kd1 (first phase, two-exponential fit) (human IgM (human)): 0.029 s⁻¹
kd2 (second phase, two-exponential fit) (human IgM (human)): 0.0023 s⁻¹
Substance: single-chain mouse globular part of C1q (from UniProt P98086 110-245; Q02105 116-246; P14106 115-253) (domain or fragment)
